The values below come from article PMC9675976, “Selfish uptake versus extracellular arabinoxylan degradation in the primary degrader Ruminiclostridium cellulolyticum, a new string to its bow” (Biotechnology for Biofuels and Bioproducts, 2022).

In one data set the target is XuaJ (Ruminiclostridium cellulolyticum, UniProt B8I0P3). Nature of the data set: Esterase activity of XuaJ. Format: biochemical. The settings on record: 37 °C, 25 mM phosphate buffer pH 7, XuaJ 0.01 µM for 1-naphthyl acetate. The method, then:
(§1) Esterase activity was tested using 1-Naphthyl acetate. Release of 1-Naphthol was monitored at 320 nm during 5 min at 37 °C in 25 mM phosphate buffer pH 7, with substrate final concentration ranging from 110 µM and 5.36 mM, and with XuaH (0.1 µM) or XuaJ (0.01 µM). Concentration of released 1-Naphthol during the first minute of the assay was determined based on 1-Naphthol standard curve.

A further data set addresses XuaH (Ruminiclostridium cellulolyticum, UniProt B8I0P1). Nature of the data set: Esterase activity of XuaH. In kind it is biochemical. Particulars: 37 °C, 25 mM phosphate buffer pH 7, XuaH 0.1 µM for 1-naphthyl acetate. As for the experimental part: as §1
Substrate in data set [1]: CC(=O)Oc1cccc2ccccc12
The experiment in a line: Esterase activity of XuaJ. Format: biochemical, Ruminiclostridium cellulolyticum. Particulars: other: 37 °C, pH 7, substrate 110 µM to 5.36 mM. The method, then:
as §1

Substrate in data set [2]: OC[C@@H]1O[C@@H](O[C@H]2[C@H](O[C@@H]3CO[C@@H](O[C@@H]4COC(O)[C@H](O)[C@H]4O)[C@H](O)[C@H]3O)OC[C@@H](O)[C@@H]2O)[C@H](O)[C@H]1O
Nature of the data set: Enzyme activity of XuaD on AXOS (HPAEC-PAD). Particulars: other: 37 °C, substrate 0.05 to 8 mM. Format: biochemical, Ruminiclostridium cellulolyticum. The method, then: (§2) XuaD, E, F, G (0.01 to 1 µM) were tested with different AXOS and/or XOS at 1 mM with incubation times varying from 5 min to 24 h. Enzymes (10 nM) were incubated at 37 °C for 5 min, kinetic parameters of XuaD were determined with both A^2,3XX and A^2XX, with sugar concentration varying from 0.05 to 8 mM, and XuaE with A^2,3XX with sugar concentration varying from 0.05 to 1 mM (at least 9 concentration point). Substrates and released products were quantified by high performance anion exchange chromatography coupled with pulsed amperometric detection on an ICS-3000 using a PA1 column (Thermo Scientific). Sugars were eluted with the buffers 0.1 M NaOH and 0.5 M sodium acetate + 0.1 M NaOH as the eluants A and B, respectively, using the multistep procedure as follows: isochratic separation (5 min, 95% A + 5% B), separation gradient (8 min, 10–37% B), column wash (2 min, 99% B), and subsequent column equilibration (2.5 min, 95% A + 5% B).

Substrate in data set [3]: OC[C@@H]1O[C@@H](O[C@@H]2[C@@H](O[C@@H]3O[C@@H](CO)[C@H](O)[C@H]3O)[C@H](O[C@@H]3CO[C@@H](O[C@@H]4COC(O)[C@H](O)[C@H]4O)[C@H](O)[C@H]3O)OC[C@H]2O)[C@H](O)[C@H]1O
The experiment in a line: Enzyme activity of XuaD on AXOS (HPAEC-PAD). Format: biochemical, Ruminiclostridium cellulolyticum. Particulars: other: 37 °C, substrate 0.05 to 8 mM. The method, then:
as §2

Sequence of XuaH (B8I0P1 entry or part of it): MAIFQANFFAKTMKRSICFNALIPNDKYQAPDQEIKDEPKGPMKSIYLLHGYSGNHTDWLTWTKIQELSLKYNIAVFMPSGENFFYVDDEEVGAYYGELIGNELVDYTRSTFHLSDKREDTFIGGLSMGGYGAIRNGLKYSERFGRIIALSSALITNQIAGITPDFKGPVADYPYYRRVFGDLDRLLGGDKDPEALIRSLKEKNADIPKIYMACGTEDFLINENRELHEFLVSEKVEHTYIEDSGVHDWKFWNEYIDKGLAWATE

Take `CC(=O)Oc1cccc2ccccc12` [1-Naphthyl acetate]: the “Specific activity (IU) of XuaJ” value at XuaJ is “IU: 21130.4 ± 676.4 IU/µmol of enzyme”. In addition, the “Specific activity (IU) of XuaH” value at XuaH is “IU: 3504.6 ± 18.9 IU/µmol of enzyme”.

B1: XuaJ (Ruminiclostridium cellulolyticum H10) (protein)
chain: MGIILNSNRPKIRLPRIISDGMVLQRNTDVKIWGWASPGEAVTVRFIGKAYHAFADDSGEWFVRLEQAKAGGPYDMYIETEESLEKITIKNILMGDVWLCSGQSNMEMKMDSVKDTYPDEIVHSCNDYIRHFLVPVKYDFEKPQTDLEAGIWEAANPESILDFTATGYFFALKLFEKYNIPIGLINASLGGSPAEAWLSENALREFPEHYESAKQLSNRDYLDKVLREDQESAEAWYTALNQNDEGLKSNDIPFHDTEYDAPFWQNIKVPSYWEDEGVGNFNGVVWFRKEIDIPSTLADKPARLVLGNIVDEDTAYINGIEVGTTPNQYITRKYSIQEGLLKEGKNTIVLRVVNTAGKGGFYKDKPYQLEIGDNIIELSGEWQYMIGAKSSPMPAPAFVQWRPLGLYNGMIAPVTSYSIKGFIWYQGESNTKNPGEYENLLKALIADWRQKWNMGNLPFLYVQLPNFMEASEIPMESSWAELREAQRRTLSVPCTGMAVAIDLGEWNDIHPVNKKDVGFRLALAAMKTAYRDKTIVAYGPMYQSGKIDGNRIILSFTDTGSGLTVKNGDRPEAFAIAGADRTFVRADAEIIGDSVAVWSEKVSHPVYVKYAWADNPADANLYNLEGLPASPFTTE
Take B1: in data set [1], the Km entry is “Km: 0.2 ± 0.02 mM”, the kcat entry is on record as “kcat: 21380.0 ± 440.0 min^-1” and the kcat/Km result is “kcat/Km: 88703.9 ± 7849.6 min^-1 mM^-1”.

B2: XuaD (Ruminiclostridium cellulolyticum H10) (protein)
chain: MVKMILNADIKKGKINKNIYGHFSEHLGRCIYEGLWVGEDSEIPNINGFRTDVVEALKKMKIPVLRWPGGCFADEYHWVDGIGPKENRPCMVNTHWGGVVENNHFGTHEFLELCEMLGAEPYICGNVGSGTVHEMQQWVEYMTFDGKSPMADLRRANGKEEPWRVKYFGVGNENWGCGGNMTAEFYADQYKRYATYVRNFGDNKIYKIAGGASVDDYHWTEVLMREAGKQMDGLSVHYYTRISKDWSEQGSATEFDENHWFSVMQNALFTEELVVRHSNIMDKYDPEKKVGMIVDEWGTWFAVEPGTNPGFLYQQNTMRDALVAGIHLNIFNNHCDRVQMANIAQMVNVLQAVILTEGKKMLLTPTYHVFDMYKVHQGAELLSLDFESPEYAYNGEKVPQLSASSSVDSEGKIHVTICNLNPSADVNIDIDLRGVKSKSSTGKIITSNAMNAKNTFEETTNVTIKNFEDINLENNHISGKIPSKSVVLLEIV
As for B2, in data set [2], the Km entry is reported as “Km 1.4 ± 0.3 mM”, the kcat result is “kcat 3408.0 ± 356.6 min^−1” and the kcat/Km entry is on record as “kcat/Km 2411.9 ± 303.3 min^−1 mM^−1”. In addition, in data set [3], the Km entry is recorded as “Km 1.8 ± 0.2 mM”, the kcat result is “kcat 4191.3 ± 117.3 min^−1” and the kcat/Km result is “kcat/Km 2388.2 ± 182.9 min^−1 mM^−1”.
